The values that follow come from PMC3216068.

The target of this experiment is SUMO1 (human) (UniProt P63165). Description: SPR; preliminary BiaCore analyses, done by Affina Biotechnologies as a paid service.

Usually Kd stands for a measure of binding affinity in units of concentration. High values mean weaker binding, low ones tighter binding.

Chain of UniProt P63165 (P63165 1-97): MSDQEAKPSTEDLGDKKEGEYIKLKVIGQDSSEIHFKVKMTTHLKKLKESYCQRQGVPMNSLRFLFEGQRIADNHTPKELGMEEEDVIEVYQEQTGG

The substance “Ulp1(3)^(C580S) as used in the BiaCore analyses (from UniProt Q02724 341-621) (domain or fragment)” registered a Kd of 12.8 nM.
